Results from the supplement of paper PMC9170038.

Tested on: MS2 coat protein
Assay: apparent KD of MS2 coat protein; designed switch direction (-1 OFF switch, 1 ON switch): -1; higher = weaker reporter binding
Procedure, shortened: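 Stalled E. coli RNA polymerase transcribed designed RNA switches on Illumina chips, which were then titrated with SNAP-549-labelled MS2 coat protein, doubling from 0.7 or 1.5 nM to 3 µM. Steps lasted from 0.8–1.5 h at the lowest concentration to 10–20 min at the highest. The apparent KD is each design's median over clusters of curve-fitted normalised fluorescence.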

[1] = Eterna round: R95, input ligand: FMN 200 uM
[2] = Eterna round: R95, input ligand: microRNA oligo, concentration not stated
[3] = Eterna round: R95, input ligand: none
[4] = input ligand: microRNA oligo, concentration not stated

Row | Sequence | apparent KD of MS2 coat protein [1] [µM] | apparent KD of MS2 coat protein [2] [µM] | apparent KD of MS2 coat protein [3] [µM] | apparent KD of MS2 coat protein (input ligand: FMN 200 uM) [µM] | apparent KD of MS2 coat protein (input ligand: none) [µM] | apparent KD of MS2 coat protein [4] [µM]
1 | UUGCUCCCUUAGUACUCUACAAGCUUUUUGUUCGUUUUAACAUGAGGAUCACCCAUGUCUAGUGGAUCUGAUCGGGU [JL ViennaUCT Isreen mod 4] (puzzle: Sensor v3, turn-off variant 2) | 0.136 | 0.226 | 0.165 |  |  | 
2 | CACUUACAUGAGGAUCACCCAUGUGAGGAUAUCGUGACCAGACGAGAAGUCUAUGUCACGAGAAGGCACGUGGG [Exclusion 1 (Mod 3.1 solution 97 by Eternabot)] (Eterna round: R97, puzzle: Exclusion 1) |  |  |  | 0.0208 | 0.811 | 
3 | UAGUAUCUGCAGGAUAUCAGUGGAAAACACGUAUGAGAAGGGCAGACAUGAGGAUCACCCAUGUAAAGGGUCCG [BotMod 10 - Jieux - Exclusion 6] (Eterna round: R97, puzzle: Exclusion 6) |  |  |  | 0.541 | 0.173 | 
4 | GUGAUCUAUCAUGGGAUAAACAUGAGGAUCACCCAUGUACACAAGUUUUUUGCUCGUCUUAUAAUAAGAUAGAUCAC [Antenna 3 - Jieux - Sensor, turn-off variant 1] (Eterna round: R97, puzzle: Sensor, turn-off variant 1) |  |  |  | 0.021 | 0.0209 | 
5 | CUUCUGUGAGGAUAUGUGAACCCGUGCCGAAAGGAUGGGAAACAGAAGGCACAUGAGGAUCACCCAUGUAAAAU [Isergeat] (puzzle: Exclusion 4) |  | 0.0291 |  |  |  | 
6 | AGGUGUAGAGGAUAUCUCUUCUCUCACAUGAGGAUCACCCAUGUCCUAAAGUCCAAGGAGAGAGAAGGCUACACCA [Omei Ex5 D4] (Eterna round: R97, puzzle: Exclusion 5) |  |  |  | 0.107 | 0.11 | 
7 | GAGUGCUGAGGAUAUACAUGAGGAUCACCCAUGUGCUUCAGCUAGGAGACUAGCAUCGGUAGAAGGCAGUACUC [Mod of lroppy 18 - Jieux - Exclusion 3] (Eterna round: R97, puzzle: Exclusion 3) |  |  |  | 0.0601 | 0.0172 | 
8 | AUAAUGUCAGGAUAUACAUGAGGAUCACCCAUGUUAGAAAGAGAAGAAGAGAAACUAUGUAGAAGGGACAAUAA [Hair Trigger] (puzzle: Exclusion 3) | 0.0437 | 0.0206 | 0.0291 |  |  | 
9 | GUGCCGCGAGGAUAUACAGACGGGUCCAAAACGUGUCUCGGACUUGAGGAUCACCCAAGUAGAAGGCUUUUCAG [salish99_ex2_r4_621] (Eterna round: R97, puzzle: Exclusion 2) |  |  |  | 0.0283 | 0.0243 | 
10 | AGCUGUGAGCGAGGAUAUCUGCUGUUUUCGGUCGGAGAAGGCGCGGACAGAACAUGAGGAUCACCCAUGUGUAUGGGCGGCCUC [Xexeenve] (Eterna round: R96, puzzle: Exclusion NG 1) |  |  |  | 0.119 | 0.0737 | 0.0445
11 | CUUGGAGAGGUAGGAUAUUUAUAUUCACACUCUGAUUCUUGUACACAUGAGGAUCACCCAUGUAUAGAGAAGGACUGCCAAGAG [Eternabot solution 48] (Eterna round: R96, puzzle: Exclusion NG 2) |  |  |  | 0.0216 | 0.0213 | 0.0172
12 | UACAUGAGGAUCACCCAUGUUUUGUCGUGUAUGGUAUUUAUCUAGGAUAUCAAUGUAAUUAUUUAUGAGAAGGAGAAUAUUAAU [JMF's solution 40] (Eterna round: R96, puzzle: Exclusion NG 3) |  |  |  | 0.0412 | 0.0447 | 0.0361
13 | AGUCGGUCAGGAUAUGCAAUUGUGGACAUGAGGAUCACCCAUGUAACGUGGGCCUGGUUUGUAGAAGGGACGUGCA [EX5 #89] (Eterna round: R97, puzzle: Exclusion 5) |  |  |  | 0.105 | 0.089 | 
14 | AACGAUCUAGGAUAUACAUGAGGAUCACCCAUGUAAGAGCCCAAACCAGGCUCCCUCUGUAGAAGGAGGUCAAA [Teleerre] (puzzle: Exclusion 3) |  | 0.0408 |  |  |  | 
15 | AGUAAUGUAUAAGGAUAUCUCGCAAAUAAAGGCAGAGAAGGUAUACCCACUUGAGGAUCACCCAAGUCUCGUGUGCCUGGUGGA [Mutated MS2 EX1.30] (Eterna round: R96, puzzle: Exclusion NG 1) |  |  |  | 0.023 | 0.0251 | 0.0201
16 | CUCCUCAUGACGCCUAAACACAUGAGGAUCACCCAUGUACAGGCUUUUUGUCGUCUUAUAAUAAAACCGAGGAGGCG [Inletice] (puzzle: Sensor v3, turn-off variant 1) | 0.0146 | 0.0659 | 0.015 |  |  | 
17 | CCGGCGUGGUGCGGUAGUUGUACGACAUGAGGAUCACCCAUGUAGGAUAUGCGCGUGGUCGCGCCGCAGAAGGACAACGUUUGG [Random, 20% A] (Eterna round: R96, puzzle: Exclusion NG 3) |  |  |  | 0.0196 | 0.0239 | 0.0146
18 | GAGAAGGUAGGAUAUACGAAUAAAGAGGGUAGGAAUAAGACACAUGAGGAUCACCCAUGUAGAAGGACCAAGAG [Mat - Exclusion 2 - Mod of my Tesla design - D50] (puzzle: Exclusion 2) | 0.0371 | 0.0203 | 0.0214 |  |  | 
19 | GCAGCAAAUUCCACUAAAAUCACAUGAGGAUCACCCAUGUCUCAGGAUAUGGUCUGGAUUACAGGCCAGAAGGGAGAAAGCUGC [Eli exng3 - 057] (Eterna round: R96, puzzle: Exclusion NG 3) |  |  |  | 0.0258 | 0.0276 | 0.0236
20 | CAGUACUGAGGAUAUACAUGAGGAUCACCCAUGUGUUGCAGCUAGGAAACUAGCAAAAGUAGAAGGCAGUACUG [salish99_ex3_r3_081] (puzzle: Exclusion 3) |  | 0.012 |  |  |  | 
21 | UUUUUGUCAGGAUAUGAGUCGUAGAACAAUAGUACUACGUCUCAGAAGGGACAUGAGGAUCACCCAUGUGCCUC [Fiskers Ex 4 Super Stable 44 mod 28] (puzzle: Exclusion 4) |  | 0.0262 |  |  |  | 
22 | UUAUACGCUGAGGAUAUCUUCACUGAAAAGUGAAGAGAAGGCGGUACAUGAGGAUCACCCAUGUCUAUGGGCAG [Ex-6 Malc#19] (puzzle: Exclusion 6) | 0.381 | 0.388 | 0.478 |  |  | 
23 | AGCUGUGGCCGAGGAUAUCUAAACCUCGAAAACGAAAUAUAAUCGAACAUGAGGAUCACCCAUGUAGAGAAGGCGGUCUCAGCA [Eli eng2 - 033] (Eterna round: R96, puzzle: Exclusion NG 2) |  |  |  |  |  | 0.051
24 | UAAUAUCUGUAGGAUAUCAGUGGAAAACACGUAUGAGAAGGGCAGACAUGAGGAUCACCCAUGUAUAGGGUCCG [BotMod 7 - Jieux - Exclusion 6] (Eterna round: R97, puzzle: Exclusion 6) |  |  |  | 0.0619 | 0.0209 | 
25 | CCUCUGUGAGGAUAUCGCGGCGGGCUAACUCGCAAACAAAACGAGAAGGCACAUGAGGAUCACCCAUGUAGGUG [Cetiis] (Eterna round: R97, puzzle: Exclusion 4) |  |  |  | 0.0391 | 0.262 | 
26 | ACAUGGAAGCAGGAUAUGCUUGUUUAAUUGUUUGCAGAAGGGCUAACAUGAGGAUCACCCAUGUAAGAGGUCUA [JR_E6_Sub062] (puzzle: Exclusion 6) |  | 0.0168 |  |  |  | 
